A short description of the data set: protein stability index of a GFP-peptide fusion (GPS, HEK-293T) (PSI 1-6); higher = more stable.
The mark [1] stands for this setting: treatment: DMSO, c terminus: a fixed tail appended.
[2] abbreviates: treatment: MLN4924 1 uM, 8 h, c terminus: a fixed tail appended.

In the supplement of paper PMC10567573 one finds protein stability index data, which are given here for 72 sequences.

± gives the standard deviation.
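Further: 24-mer peptide tiles fused after GFP, lentivirally expressed, FACS-sorted into six equal bins by GFP/DsRed ratio, decoded by Illumina sequencing, PSI is the read-weighted mean bin number.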

FNEMSAQGLRPRTVSSPIPYTPSP [CCDC6]: the protein stability index is, setting by setting: under setting [1], 4.02 ± 0.3; under setting [2], 4.12 ± 0.23.
Regarding RGPPPRSGGPPPKRSAPSGPVRSS [RBMX], the protein stability index stood at 4.4 ± 0.2 under setting [1] and 4.56 ± 0.086 under setting [2].
For IGLGHIYSGTFALIGAAAFLGGVV [CLCN6] the same measures were 2.94 ± 0.19 and 3.27 ± 0.7.
For IYQQLSRYRGLGLLASVPSNPNGN [CRY1], in that order: 2.4 ± 0.28 and 2.74 ± 0.29.
For DVRLDREHRVAGIFPRLSFKDKST [CLPTM1], in that order: 3.79 ± 0.063 and 4 ± 0.089.
For the sequence QGDPAFPEMNGNGAVAPMDFTTAA [NOL4L], the protein stability index reads like this: under setting [1], 5.09 ± 0.2; under setting [2], 4.98 ± 0.16.
For the sequence GAFQAQEKELVFDIDMTDYDDVRR [PRIM1], the protein stability index by setting is: under setting [1], 4.72 ± 0.4; under setting [2], 4.71 ± 0.14.
Regarding NREACRDLSGRRLRDVNHEKAMAE [SDE2], the protein stability index turned out to be 5.01 ± 0.12 under setting [1] and 4.87 ± 0.32 under setting [2].
For the sequence GYRDYGHSRRHESYSRGYSYHDGY [RBMY1A1], the protein stability index stood at 2.64 ± 0.25 under setting [1] and 2.61 ± 0.45 under setting [2].
For SMPSYSSCTVTTVQPMDRLPYQHF [TBX5], the protein stability index is, setting by setting: under setting [1], 2.56 ± 0.3; under setting [2], 2.64 ± 0.17.
The sequence IGRDPPAETQPQNPPAQPAPNAWQ [CLPTM1] gave a protein stability index under setting [1] of 5.21 ± 0.31 and a protein stability index under setting [2] of 5.02 ± 0.25.
For KPAEYGYVSLGRLGAAKGALHPGC [CEBPB], in that order: 2.94 ± 0.11 and 3.06 ± 0.32.
For NMSREPFSTRALVLSILHATLPGI [SOAT2] the same measures were 3.18 ± 0.55 and 2.93 ± 0.62.
For RRQQAKLKELQAIAERLGCTLPQL [KCNAB2], in that order: 2.99 ± 0.17 and 3.19 ± 0.3.
For MAGAPDERRRGPAAGEQLQQQHVS [ATP23], the protein stability index under setting [1] stood at 5.058 ± 0.01 and the protein stability index under setting [2] turned out to be 4.57 ± 0.25.
For NRPLSLKDQQTFARSVGLKWRKVG [TRADD], in that order: 3.03 ± 0.15 and 3.17 ± 0.11.
Consider LELVINYQQLCIYWTKYYDFKNPI [OAS1], for which the protein stability index was found to be 3.22 ± 0.24 under setting [1] and 3.33 ± 0.18 under setting [2].
For FLSGLAFRVFHCTQYVRHSSDPFY [TPH1], in that order: 2.67 ± 0.27 and 2.99 ± 0.4.
On to VFFVCFVPYHIARIPYTKSQTEAH [P2RY14], for which the protein stability index by setting is: under setting [1], 3.57 ± 0.74; under setting [2], 3.17 ± 0.35.
For the sequence ATGLTSGLLSLLLPETLNSPLLET [SLC22A15], the protein stability index worked out at 2.2 ± 0.46 under setting [1] and 2.1 ± 0.23 under setting [2].
Turning to DERVLENVEHYQELKKMVQQSDLG [ALG2], the protein stability index runs as follows: under setting [1], 4.95 ± 0.38; under setting [2], 4.8 ± 0.28.
For MAQYKGAASEAGRAMHLMKKREKQ [FAM50A], in that order: 4.7 ± 0.34 and 4.47 ± 0.4.
VAQTGILWLLMNNCFLNLSPRKP [GAGE1]: the protein stability index is 2.71 ± 0.17 (treatment: DMSO, c terminus: native) and 2.82 ± 1.2 (treatment: MLN4924 1 uM, 8 h, c terminus: native).
As for DYEAGQHMEDPRRAGKMLMTLPLL [ESRRG], the protein stability index under setting [1] was found to be 3.56 ± 0.29 and the protein stability index under setting [2] is 3.52 ± 0.15.
Take IERSSSFSSITDSTMSLNIITVTL [DVL3]: the protein stability index was found to be 2.8 ± 0.42 under setting [1] and 2.85 ± 0.23 under setting [2].
Turning to PSETGNTFVSGGCDKKAMVWDMRS [GNB5], the protein stability index by setting is: under setting [1], 3.93 ± 0.16; under setting [2], 3.75 ± 0.26.
On to SVAHLPWRMLTYKALNTFIDDLFA [CLPTM1], for which the protein stability index under setting [1] worked out at 2.46 ± 0.25 and the protein stability index under setting [2] worked out at 2.28 ± 0.37.
Consider YYHRGHVDPANDTFDIDPMVVTDC [MCOLN1], for which the protein stability index is, setting by setting: under setting [1], 3.63 ± 0.21; under setting [2], 3.78 ± 0.14.
Regarding VEKFIYENHPDVFSDSSMDHFQKF [MYOZ1], the protein stability index runs as follows: under setting [1], 2.94 ± 0.2; under setting [2], 3.09 ± 0.19.
For NWTVAFAPDGSYFAWSQGHRTVKL [WSB1] the same measures were 2.42 ± 0.53 and 2.47 ± 0.44.
For GDWAPPPEGGMEQALAGASSGREL [ZNF263], the protein stability index worked out at 5.35 ± 0.36 under setting [1] and 5.37 ± 0.16 under setting [2].
Regarding LHYQDTDSDVPEQRDSKCKVKWTH [MYBL2], the protein stability index runs as follows: under setting [1], 3.77 ± 0.32; under setting [2], 4.05 ± 0.19.
For ELSAIGSDTTPLPSWAALNSSTWG [SNX8], in that order: 2.94 ± 0.36 and 2.75 ± 0.18.
As to QQLVSFSESGSLGNSSGSDVTSLS [ISL2], the protein stability index is, setting by setting: under setting [1], 4.79 ± 0.19; under setting [2], 4.72 ± 0.37.
With IKCFHEIITIGYNVYHSYDLPWFR [CDS2], the protein stability index under setting [1] is 2.21 ± 0.12 and the protein stability index under setting [2] was found to be 2.31 ± 0.33.
For GLGGGSSRTSCRLSGGLGAGSCRL [KRT17] the same measures were 2.41 ± 0.13 and 2.35 ± 0.41.
On to MMRGLSYSLTTSSTHKSSLCKVEI [RAB40A], for which the protein stability index by setting is: under setting [1], 2.31 ± 0.59; under setting [2], 2.28 ± 0.46.
For the sequence KHFKVQLVDNVYCIGQRRFHTMDE [NCK2], the protein stability index is 2.48 ± 0.16 under setting [1] and 2.44 ± 0.37 under setting [2].
TYSLPPFLKAVLRQERVSLYPFQI [CDS1]: the protein stability index runs as follows: under setting [1], 2.19 ± 0.8; under setting [2], 2.12 ± 0.32.
For ESRRQQILREFEELHRRLDEEQQV [TRIM39] the same measures were 4.87 ± 0.23 and 4.8 ± 0.097.
In the case of AGGGSQENLDNDTETDSLVSAQRE [DVL3], the protein stability index was 5.32 ± 0.21 under setting [1] and 5.65 ± 0.36 under setting [2].
For AVIGNFLYVVGGQSNYDTKGKTAV [KLHL13] the same measures were 2.38 ± 0.73 and 2.24 ± 0.67.
Sequence DVKKEKLSPDIMKDAYVQKLVKVC [TENT5D] showed a protein stability index under setting [1] of 2.94 ± 0.52 and a protein stability index under setting [2] of 3.1 ± 0.076.
Take QTLRQELSLPYLPSGTPELEVPKP [CHIT1]: the protein stability index runs as follows: under setting [1], 4.7 ± 0.15; under setting [2], 4.69 ± 0.36.
For LYAFFTRTHGDMHSLVRSRHRIPE [TRIB3] the same measures were 2.18 ± 0.046 and 2.26 ± 0.45.
As for QALRRLRPRTRKVKSVSPQGNSVD [NCF4], the protein stability index came out at 4.32 ± 0.46 under setting [1] and 4.63 ± 0.26 under setting [2].
For CFSTGLSRRVLLTNVVTGHRQSFG [DCAF4] the same measures were 2.1 ± 0.18 and 2.38 ± 0.21.
On to RLRHYLGSRYDARRGVSDWDLRMK [DNAAF3], for which the protein stability index was found to be 2.19 ± 0.21 under setting [1] and 2.33 ± 0.33 under setting [2].
For WEEAQSPANCPACREPSPKMDFKT [TRIM43], in that order: 4.56 ± 0.076 and 4.83 ± 0.25.
Regarding EIVSIWILSFILAIPEAIGFVMVP [EDNRA], the protein stability index under setting [1] was determined as 2.86 ± 0.18 and the protein stability index under setting [2] came to 3.03 ± 0.17.
For LEKCKTLVSQSNDLSSLRAKYPHD [SPACA9], in that order: 4.29 ± 0.16 and 4.4 ± 0.19.
For VCINLPPPLTRQIAVKTLGIGKNV [GFOD1], in that order: 2.23 ± 0.27 and 2.05 ± 0.19.
For KDHSCKDNIREAFQIYDKEASGYV [EFHC1] the same measures were 3.72 ± 0.31 and 3.81 ± 0.13.
TKGVREVERALQLPREPGDSAQFT [FEM1A] came in with a protein stability index under setting [1] of 4.72 ± 0.23 and a protein stability index under setting [2] of 4.76 ± 0.29.
For VRVLDMVAKLESECLKRQGQREPG [FBXO34], in that order: 4.06 ± 0.29 and 4.17 ± 0.31.
With CQEQIEALLESSLRQAQQNMDPKA [CCND1], the protein stability index by setting is: under setting [1], 4.85 ± 0.079; under setting [2], 4.63 ± 0.19.
Take GARPVSSAASVYAGAGGSGSRISV [KRT18]: the protein stability index runs as follows: under setting [1], 3.66 ± 0.34; under setting [2], 3.75 ± 0.19.
For EAGAPGEEDIQGPTKADTEKWAEG [CHGB], in that order: 5.64 ± 0.29 and 5.59 ± 0.32.
For ELSEKNFQLNQDKMNFSTLRNIQG [POMP], in that order: 2.69 ± 0.59 and 3.27 ± 0.44.
As to PDFPSINMDPAGLDDEDDTSIGMP [RETREG3], the protein stability index reads like this: under setting [1], 5.49 ± 0.18; under setting [2], 5.53 ± 0.11.
For VSAGGHTLSRPPPAQVPREVLKVQ [TFE3] the same measures were 3.95 ± 0.33 and 4.21 ± 0.11.
For TSCKLTDLRGVCVSGKCEPIGCDG [ADAMTSL2], in that order: 3.4 ± 0.12 and 3.28 ± 0.27.
For EKEYKTYKENFLKRFQLTKLPPYL [USP39], in that order: 2.5 ± 0.17 and 2.93 ± 0.28.
Take RGEVLPEEITEESLEESVGKPLYL [INTS3]: the protein stability index was determined as 5.17 ± 0.38 under setting [1] and 5.08 ± 0.35 under setting [2].
In the case of QVPYPPRQLLRDFQSRLPYQYLHY [P3H4], the protein stability index is 2.45 ± 0.072 under setting [1] and 2.24 ± 0.35 under setting [2].
For AYEFADRDEVRFFKGNKYWAVQGQ [MMP1], in that order: 2.54 ± 0.45 and 2.74 ± 0.61.
RRPRTAFTQNQIEVLENVFRVNCY [HESX1]: the protein stability index was 2.39 ± 0.15 under setting [1] and 2.53 ± 0.24 under setting [2].
For PSFCPVQPCFFQDISMEIPQEFQK [SCAMP3], in that order: 3.64 ± 0.35 and 3.69 ± 0.21.
For FSTCGSHLTVVAIFYGSGIFNYMR [OR3A1], in that order: 2.89 ± 0.56 and 2.94 ± 0.49.
For AGNSTSGSRAGASSFSDPFFVVET [KCNA3], in that order: 3.75 ± 0.15 and 3.58 ± 0.27.
With VLLPETQKRQQLSEDTLTIHGLPT [C22orf31], the protein stability index is 3.73 ± 0.092 under setting [1] and 3.88 ± 0.3 under setting [2].
For ILIREAQNQPIDKARKTYERLVAQ [CSTF3], in that order: 2.83 ± 0.2 and 2.82 ± 0.11.
